{
  "source": "paper PMC5607582",
  "target": "trimeric H5-S·Tag (ectodomain of H5 hemagglutinin of A/duck/Viet Nam/TG24-01/2005 (H5N1) fused to GCN4-pII and S·Tag) (influenza A virus A/duck/Viet Nam/TG24-01/2005 (H5N1) | not stated | bovine)",
  "data": [
    {"substance": "S·Protein-GCN4 (S·Protein fused to the dimerization domain GCN4 wild-type) (from UniProt P61823 47-150)", "values": [
      {"measurement": "hemagglutination titer (HAU) of plant extract after co-expression in plants", "value": 2, "unit": "HAU"}
    ]},
    {"substance": "S·Protein-TP (S·Protein of bovine ribonuclease A fused to the tailpiece of mouse IgM) (from UniProt P61823 47-150)", "values": [
      {"measurement": "hemagglutination titer (HAU) of plant extract after co-expression in plants", "value": 256, "unit": "HAU"}
    ]},
    {"substance": "S·Protein-pII (S·Protein fused to the trimerization domain GCN4-pII) (from UniProt P61823 47-150)", "values": [
      {"measurement": "hemagglutination titer (HAU) of plant extract after co-expression in plants", "value": 0, "unit": "HAU"}
    ]},
    {"substance": "wild-type S·Protein (bovine pancreatic ribonuclease A residues 21-124) (from UniProt P61823 47-150) (domain or fragment)", "values": [
      {"measurement": "hemagglutination titer (HAU) of plant extract after co-expression in plants", "value": 4, "unit": "HAU"}
    ]}
  ]
}
